Test results reported in US20190092846A1 (Novartis, published 2019).

T1: mouse recombinant TGF-β2 (mouse, UniProt P27090 303-414)
T1 sequence (looked up): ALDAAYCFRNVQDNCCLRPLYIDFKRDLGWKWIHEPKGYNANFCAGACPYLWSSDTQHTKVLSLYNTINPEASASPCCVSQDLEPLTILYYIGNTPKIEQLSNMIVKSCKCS

T2: human TGF-β3 (human, UniProt P10600 301-412)
T2 sequence: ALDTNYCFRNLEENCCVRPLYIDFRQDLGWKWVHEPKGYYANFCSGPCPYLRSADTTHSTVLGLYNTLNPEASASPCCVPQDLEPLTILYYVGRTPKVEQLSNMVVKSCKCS

T3: human recombinant TGF-β2 (human, UniProt P09858 303-414 (pig entry))
T3 sequence: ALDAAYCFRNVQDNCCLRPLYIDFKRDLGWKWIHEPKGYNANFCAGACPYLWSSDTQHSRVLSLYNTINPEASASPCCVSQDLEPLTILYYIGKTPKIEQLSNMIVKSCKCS

T4: human TGFβ-2 (residues 303-414, SEQ ID NO: 122) (human, UniProt P61812 303-414)
T4 construct: Construct of the crystal structure with the MOR14797 Fab; also called TGFβ-2 dimer (chains A and B)
T4 sequence: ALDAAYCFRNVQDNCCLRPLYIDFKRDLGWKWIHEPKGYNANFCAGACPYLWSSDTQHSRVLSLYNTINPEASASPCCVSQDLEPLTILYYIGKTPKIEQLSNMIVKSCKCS

B1: MOR14809 (antibody, human IgG1, lambda, V domains shown)
VH: QVQLVQSGAEVKKPGESLKISCKGSGYSFTRYWIAWVRQMPGKGLEWMGIIDPGTSDTRYSPSFQGQVTISADKSISTAYLQWSSLKASDTAMYYCARIDKSLILHSAFDYWGQGTLVTVSS
VL: SYELTQPLSVSVALGQTARITCSGDNLGGYYAYWYQQKPGQAPVLVIYETNNRPSGIPERFSGSNSGNTATLTISRAQAGDEADYYCASTTQDYLVFVFGGGTKLTVLG
B2: 1D11 (antibody, V domains shown)
VH: QVQLQQSGPELVRPGASVKLSCKASGYIFITYWMNWVKQRPGQGLEWIGQIFPASGSTNYNEMFEGKATLTVDTSSSTAYMQLSSLTSEDSAVYYCARGDGNYALDAMDYWGQGTSVTVSS
VL: DIVLTQSPASLAVSLGQRATISCRASESVDSYGNSFMHWYQQKSGQPPKLLIYLASNLESGVPARFSGSGSRTDFTLTIDPVEADDAATYYCQQNNEDPLTFGAGTKLEIK
B3: MOR14799 (antibody, human IgG1, lambda, V domains shown)
VH: QVQLVQSGAEVKKPGESLKISCKGSGYSFTRYYVAWVRQMPGKGLEWMGWIDPGQSNTRYSPSFQGQVTISADKSISTAYLQWSSLKASDTAMYYCARMLAWGWFDYWGQGTLVTVSS
VL: SYELTQPLSVSVALGQTARITCSGDNLGGYYAHWYQQKPGQAPVLVIYDKSDRPSGIPERFSGSNSGNTATLTISRAQAGDEADYYCASYDSSLMMVFGGGTKLTVLG
B4: MOR14805 (antibody, human IgG1, lambda, V domains shown)
VH: QVQLVQSGAEVKKPGESLKISCKGSGYSFTRYYVAWVRQMPGKGLEWMGWIDPGTSNTRYSPSFQGQVTISADKSISTAYLQWSSLKASDTAMYYCARMLAWGWFDYWGQGTLVTVSS
VL: SYELTQPLSVSVALGQTARITCSGDNLGGYYAHWYQQKPGQAPVLVIYDKSDRPSGIPERFSGSNSGNTATLTISRAQAGDEADYYCASYDSSLMMVFGGGTKLTVLG
B5: MOR14800 (antibody, human IgG1, lambda, V domains shown)
VH: QVQLVQSGAEVKKPGESLKISCKGSGYSFTRYYVAWVRQMPGKGLEWMGWIDPGQSNTRYSPSFQGQVTISADKSISTAYLQWSSLKASDTAMYYCARMLAWGWFDYWGQGTLVTVSS
VL: SYELTQPLSVSVALGQTARITCSGDNLGGYYAHWYQQKPGQAPVLVIYDTSDRPSGIPERFSGSNSGNTATLTISRAQAGDEADYYCASYDSSLMMVFGGGTKLTVLG
B6: MOR14797 (antibody, human IgG1, kappa, V domains shown)
VH: QVTLRESGPALVKPTQTLTLTCTFSGFSLSTSGMGVGWIRQPPGKALEWLAHIYWNDDKSYSTSLKTRLTISKDTSKNQVVLTMTNMDPVDTATYYCARDFYYSGYFDSWGQGTLVTVSS
VL: DIQMTQSPSSLSASVGDRVTITCRASQDISNYLNWYQQKPGKAPKLLIFGASSLQSGVPSRFSGSGSGTDFTLTISSLQPEDFATYYCQQTNTMNTFGQGTKVEIKR
notes: (no LALA)
B7: MOR14797 Fab (Fab, V domains shown)
VH: QVTLRESGPALVKPTQTLTLTCTFSGFSLSTSGMGVGWIRQPPGKALEWLAHIYWNDDKSYSTSLKTRLTISKDTSKNQVVLTMTNMDPVDTATYYCARDFYYSGYFDSWGQGTLVTVSS
VL: DIQMTQSPSSLSASVGDRVTITCRASQDISNYLNWYQQKPGKAPKLLIFGASSLQSGVPSRFSGSGSGTDFTLTISSLQPEDFATYYCQQTNTMNTFGQGTKVEIKR
notes: also called Fab fragment of MOR14797
B8: MOR14787 (antibody, human IgG1, kappa, V domains shown)
VH: QVQLVQSGAEVKKPGSSVKVSCKASGGTFSSYAISWVRQAPGQGLEWMGVIVPKWGHPQYAQKFQGRVTITADESTSTAYMELSSLRSEDTAVYYCAREGDFVVLVLTEHYMGGFDVWGQGTLVTVSS
VL: DIQMTQSPSSLSASVGDRVTITCRASQSIDEYLNWYQQKPGKAPKLLIYAGSNLQSGVPSRFSGSGSGTDFTLTISSLQPEDFATYYCLQGYSYPRTFGQGTKVEIKR

Key:
human TGF-β1 [1] = target: T5, human TGF-β1 (human, UniProt P01137 279-390); assay: not named in the sentence (it points to Table 4)
T5 construct: also called TGFbeta-1; TGFbeta 1

human TGF-β1 [2] = target: T5, human TGF-β1; assay: cell-based or functional assay
mouse recombinant TGF-β2 [3] = target: T1, mouse recombinant TGF-β2; assay: cell-based or functional assay
human TGF-β3 [4] = target: T2, human TGF-β3; assay: cell-based or functional assay
human recombinant TGF-β2 [5] = target: T3, human recombinant TGF-β2; assay: cell-based or functional assay
human recombinant TGF-β2 [6] = target: T3, human recombinant TGF-β2; assay: conservative reading of the KD value of Table 4
mouse recombinant TGF-β2 [7] = target: T1, mouse recombinant TGF-β2; assay: BiaCORE (surface plasmon resonance)
human TGF-β3 [8] = target: T2, human TGF-β3; assay: BiaCORE (surface plasmon resonance)
human recombinant TGF-β2 [9] = target: T3, human recombinant TGF-β2; assay: BiaCORE (surface plasmon resonance)
human TGF-β1 [10] = target: T5, human TGF-β1; assay: cell-based or functional assay; remark: listed apart in the source
human recombinant TGF-β2 [11] = target: T3, human recombinant TGF-β2; assay: ratio of the KD values of Table 4
human recombinant TGF-β2 [12] = target: T3, human recombinant TGF-β2; assay: ratio with the conservative KD of 100 fM
human recombinant TGF-β2 [13] = target: T3, human recombinant TGF-β2; assay: conservative reading of the KD value of Table 4; conservative interpretation of the Table 4 KD, not a new measurement
[14] = target: T4, human TGFβ-2 (residues 303-414, SEQ ID …); assay: X-ray crystal structure of the complex
Description: As detailed below, the individual components of the complex were produced using separate expression systems and were combined to generate the purified complex. X-ray crystallography was then employed to generate diffraction data for TGFβ-2 bound to the MOR14797 Fab, elucidating the antigen-binding site.
The TGFβ-2-MOR14797 complex was concentrated to 20 mg/ml, followed by centrifugation at 20,000×g for 10 min prior to dispensing crystallization screens. Crystals were grown at 20° C. using a sitting drop vapor diffusion setup. 0.1 μl of the TGFβ-2-MOR14797 complex was mixed with 0.1 μl of a reservoir solution containing 0.1 M HEPES (pH 7.5) and 70% (v/v) MPD, and the drop was equilibrated against 45 μl of the reservoir solution. Crystals were flash-cooled directly in liquid nitrogen and were sent to the Advanced Photon Source (Argonne National Laboratory, USA) for collection of diffraction data at beamline 17-ID. Datasets were processed using autoPROC (version 1.1.6, Global Phasing Ltd.) to a resolution of 2.4 Å in space group P2₁2₁2₁ with cell dimensions a=77.2 Å, b=122.1 Å, c=130.1 Å, α=90°, β=90°, and γ=90°. […] The Rwork and Rfree values are 17.5% and 23.0%, respectively. The RMSD values for the bond lengths and angles were 0.008 Å and 1.054°.

T5 sequence (P01137 279-390 limits assumed): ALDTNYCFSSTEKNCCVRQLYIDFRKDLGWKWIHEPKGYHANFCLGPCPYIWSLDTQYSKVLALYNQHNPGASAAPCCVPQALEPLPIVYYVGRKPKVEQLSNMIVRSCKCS

Binder	binding result (human TGF-β1 [1])	RGA (CAGA-12 luc/Smad-2/3 RGA; IC 50 [pM]) (human TGF-β1 [2]) [pM]	CK (IC 50 [pM]), Skeletal Muscle Cell Differentiation Assay (Creatine Kinase) (mouse recombinant TGF-β2 [3]) [pM]	RGA (CAGA-12 luc/Smad-2/3 RGA; IC 50 [pM]) (mouse recombinant TGF-β2 [3]) [pM]	RGA (CAGA-12 luc/Smad-2/3 RGA; IC 50 [pM]) (human TGF-β3 [4]) [pM]	CK (IC 50 [pM]), Skeletal Muscle Cell Differentiation Assay (Creatine Kinase) (human recombinant TGF-β2 [5]) [pM]	RGA (CAGA-12 luc/Smad-2/3 RGA; IC 50 [pM]) (human recombinant TGF-β2 [5]) [pM]	Kd (human recombinant TGF-β2 [6]) [nM]	Kd (mouse recombinant TGF-β2 [7]) [pM]	Kd (human TGF-β3 [8]) [nM]	Kd (human recombinant TGF-β2 [9]) [pM]	IC50 (read off the curve) (CAGA-12 luciferase reporter gene assay, HEK293T/17) (human TGF-β1 [10]) [nM]	fold lower KD for TGFβ2 than for TGFbeta 3 (human recombinant TGF-β2 [11]) [fold]	fold lower KD for TGFβ2 than for TGFbeta 3 (human recombinant TGF-β2 [12]) [fold]	Kd (human recombinant TGF-β2 [13]) [nM]	fold lower KD for TGFbeta-2 than for TGFbeta-3 (human recombinant TGF-β2 [11]) [fold]	fold lower KD for TGFβ2 than for TGFbeta-3 (human recombinant TGF-β2 [12]) [fold]	binding result [14]
B1	no binding	> 100000	800	598	> 100000	220	94	≤ 0.0001	0.00236	> 1000	0.0524	–	–	–	–	–	–	–
B2	–	108	–	–	32	–	4370	–	–	0.02	117	~0.5	17	–	–	–	–	–
B3	no binding	> 100000	909	138	> 100000	1050	78	–	0.00277	0.0199	0.00108	–	> 18000	200	≤ 0.0001	–	–	–
B4	no binding	> 100000	629	248	> 100000	315	106	–	–	0.0705	0.97	–	–	–	–	73	–	–
B5	no binding	> 100000	1200	123	> 100000	491	29	≤ 0.0001	0.00109	> 1000	–	–	–	–	–	–	–	–
B6	no binding	> 100000	1500	329	> 100000	105	8.4	≤ 0.0001	0.633	27.4	0.00446	–	–	–	–	6e+06	270000	–
B7	–	–	–	–	–	–	–	–	–	–	–	–	–	–	–	–	–	binds
B8	no binding	> 100000	3000	> 100000	> 100000	366	2.8	–	1.89	> 1000	–	–	–	–	–	–	–	–
